From patent US20160185837A1 (Medimmune Limited, priority 2013, published 2016)

Assays:
hGIPr (C3) = target: T1, hGIPr (C3) (Homo sapiens, UniProt P48546); assay: BSA-cAMP assay, second human GIPr cell line hGIPr (C3); format: cell-based; details: second human GIPr cell line, STDEV or N in the line below, read-out: cAMP activity hGIPr (C3) (EC50)
T1 construct: expressed in transfected cells
T1 sequence (P48546 22-466): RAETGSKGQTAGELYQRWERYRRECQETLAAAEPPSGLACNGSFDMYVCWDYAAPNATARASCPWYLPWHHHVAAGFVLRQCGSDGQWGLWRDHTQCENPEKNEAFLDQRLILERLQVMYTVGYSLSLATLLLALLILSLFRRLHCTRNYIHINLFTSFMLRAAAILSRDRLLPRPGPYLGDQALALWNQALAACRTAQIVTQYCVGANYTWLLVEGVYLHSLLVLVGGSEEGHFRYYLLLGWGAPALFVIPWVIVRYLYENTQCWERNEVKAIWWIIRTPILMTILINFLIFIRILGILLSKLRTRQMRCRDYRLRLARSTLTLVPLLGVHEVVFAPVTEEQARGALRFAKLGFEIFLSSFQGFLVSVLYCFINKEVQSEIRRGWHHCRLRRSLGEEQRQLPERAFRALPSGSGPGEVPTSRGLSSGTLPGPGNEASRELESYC
Procedure: For human GIPr, two different lines were used, shown as “hGIPr” and “hGIPr (C3)” in Table 11. Peptide activation of these various receptors results in downstream production of cAMP second messenger that can be measured in a functional activity assay.
One basic cAMP assays was performed, differing in the medium used for the assay, the “BSA-cAMP assay”:
BSA-based assay medium: 0.1% bovine serum albumin (BSA) in
Hanks Balanced Salt Solution (GIBCO or Sigma), containing 0.5 mM IBMX (Sigma #17018);
In certain aspects, the assay can also be carried out in medium supplemented with serum albumin that corresponds to the receptor being tested, e.g., human serum albumin for testing cAMP activity at hGIPr or hGLP-1r, rat serum albumin for testing cAMP activity at rGIPr or rGLP-1r, and so on. […]
cAMP levels were measured using a commercially available cAMP dynamic 2 HTRF kit (Cisbio, Cat #62AM4PEJ), following the two step protocol as per manufacturer's recommendations. […] Plates were incubated at room temperature for one hour and then read on an Envision (Perkin Elmer) using excitation wavelength of 320 nm and emission wavelengths of 620 nm & 665 nm. Data was transformed to % Delta F as described in manufacturer's guidelines and then transformed to percent activation of maximal native agonist response and analysed by 4-parameter logistic fit to determine EC50 values. […]

rat GIP receptor (rGIPr) = target: T2, rat GIP receptor (rGIPr) (Rattus norvegicus, UniProt P43219); assay: BSA-cAMP assay, cells expressing rat GIP receptor; format: cell-based; details: BSA-cAMP assay; read-out: cAMP activity rGIPr (EC50)
T2 construct: expressed in transfected cells; host or cells: HEK293s or CHO cells
T2 sequence (P43219 19-455): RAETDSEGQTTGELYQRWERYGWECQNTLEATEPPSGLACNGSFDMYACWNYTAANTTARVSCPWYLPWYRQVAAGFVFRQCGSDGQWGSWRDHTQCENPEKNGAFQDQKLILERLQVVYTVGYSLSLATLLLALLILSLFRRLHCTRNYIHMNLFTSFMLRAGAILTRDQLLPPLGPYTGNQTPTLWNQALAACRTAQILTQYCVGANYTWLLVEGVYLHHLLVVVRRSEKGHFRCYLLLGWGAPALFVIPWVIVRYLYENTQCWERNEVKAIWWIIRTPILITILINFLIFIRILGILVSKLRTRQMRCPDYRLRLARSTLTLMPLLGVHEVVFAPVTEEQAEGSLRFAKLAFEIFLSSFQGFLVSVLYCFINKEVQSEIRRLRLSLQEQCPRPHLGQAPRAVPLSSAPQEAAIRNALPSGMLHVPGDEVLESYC
How it was run: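 EC50 is the midpoint of an unconstrained 4-parameter logistic fit to HTRF cAMP data, expressed as percent of maximal native agonist response, from two separate occasions. Rodent (mouse, rat) GLP-1R- or GIPR-expressing cells were incubated with compound 30 min at room temperature in 0.1% BSA medium, in duplicate.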

EC50 (hGIPr (C3)): 0.8 nM
EC50 (rat GIP receptor (rGIPr)): 0.0076 nM
B1: IP018 (protein)
chain: YSEGTFISDYSIAMDKIHQQDFVNWLLAQKAAAGGSGSTASSGSGSATGGGGAATHTCPPCPAPEF
modifications: /note=“Description of Artificial Sequence Synthetic Peptide-linker-hinge polypeptide”
